Assay results reported in article PMC5486021, “Biochemical and Computational Insights on a Novel Acid-Resistant and Thermal-Stable Glucose 1-Dehydrogenase” (International Journal of Molecular Sciences, 2017).

Columns and labels:
[1] = molecular target: NAD(P)-dependent glucose 1-dehydrogenase from Bacillus sp. ZJ (Bacillus sp. ZJ); assay: SEC; gel filtration on a Zorbax Bio-series GF-450 column; standards lysozyme (14.3 kDa), chicken ovalbumin (45 kDa), bovine serum albumin fraction V (67 kDa), goat IgG (150 kDa); native mass estimated 120 kDa against 30 kDa on SDS-PAGE
BzGDH = molecular target: T1, BzGDH (Bacillus sp. (in: firmicutes), UniProt A0A068FPP9); assay: NADH absorbance at […] nm, nonlinear Michaelis-Menten fit; assay type: biochemical, Bacillus sp. ZJ; settings: 100 mM sodium phosphate pH 8.0, 25 °C; 1 mM NAD; glucose 1-200 mM; kcat per subunit
T1 construct: full length, 261 residues (28 kDa predicted, 30 kDa SDS-PAGE, 120 kDa native), pET28a (NdeI/BamHI) in E. coli BL21(DE3), Ni-NTA purified, His tag removal not mentioned; N-terminus from primer MYSDLA

[2] = tested on: T2, NC(=O)c1ccc[n+]([C@@H]2O[C@H](COP(=O)(O)OP(=O)(O)OC[C@H]3O[C@@H](n4cnc5c(N)ncnc54)[C@H](O)[C@@H]3O)[C@@H](O)[C@H]2O)c1; assay: purified protein; assay type: biochemical, Bacillus sp. ZJ; settings: 100 mM sodium phosphate pH 8.0, 25 °C, glucose given as 200 µM (standard assay 200 mM), NAD 0.01-0.2 mM, kcat per subunit, varied: cofactor
T2 construct: full length, 261 residues (28 kDa predicted, 30 kDa SDS-PAGE, 120 kDa native), pET28a (NdeI/BamHI) in E. coli BL21(DE3), Ni-NTA purified, His tag removal not mentioned; N-terminus from primer MYSDLA

[3] = tested on: T3, NC(=O)c1ccc[n+]([C@@H]2O[C@H](COP(=O)(O)OP(=O)(O)OC[C@H]3O[C@@H](n4cnc5c(N)ncnc54)[C@H](OP(=O)(O)O)[C@@H]3O)[C@@H](O)[C@H]2O)c1; assay: purified protein; assay type: biochemical, Bacillus sp. ZJ; settings: 100 mM sodium phosphate pH 8.0, 25 °C, glucose given as 200 µM (standard assay 200 mM), NADP 0.01-0.2 mM, kcat per subunit, varied: cofactor
T3 construct: full length, 261 residues (28 kDa predicted, 30 kDa SDS-PAGE, 120 kDa native), pET28a (NdeI/BamHI) in E. coli BL21(DE3), Ni-NTA purified, His tag removal not mentioned; N-terminus from primer MYSDLA

In the case of “NAD(P)-dependent glucose 1-dehydrogenase from Bacillus sp. ZJ (enzyme)”, the stoichiometry N [1] is reported as 4.

`OC[C@H]1OC(O)[C@H](O)[C@@H](O)[C@@H]1O` (stereo partly drawn) [D-glucose] was tested, and the Km (BzGDH) was 17.1 ± 0.946 mM.

In the case of BzGDH (Bacillus sp. (in: firmicutes)), the Km [2] is reported as 0.072 ± 0.009 mM, the kcat [2] is reported as 84.5 ± 2.17 s⁻¹ and the kcat/Km [2] is reported as 1.17e+06 M⁻¹ s⁻¹. The Km [3] was 0.404 ± 0.088 mM, the kcat [3] was 74 ± 2.68 s⁻¹ and the kcat/Km [3] was 183000 M⁻¹ s⁻¹.
